± gives the half width of the 95% confidence interval.
Legend:
[1] = folding stability dG unfold (combined trypsin and chymotrypsin); higher = more stable
Outline: (§1)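 Sequencing followed digestion of designed mini-proteins with trypsin and chymotrypsin, each at 11 concentrations in threefold dilutions together with a no-protease condition. The mini-proteins were under 80 residues, had no cysteine, sat in a PA-tagged cDNA display construct, and were kept only if AlphaFold2 dimer inter-PAE was above 15. From the counts, Bayesian fitting gave K50, and unfolding free energy was derived against a sequence-predicted unfolded-state K50 and a shared folded-state K50, per protease or combined.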

[2] = folding stability dG unfold from chymotrypsin proteolysis; higher = more stable
Outline: as §1

[3] = folding stability dG unfold from trypsin proteolysis; higher = more stable
Outline: as §1

| Sequence | folding stability dG unfold [1] | folding stability dG unfold [2] | folding stability dG unfold [3] |
| --- | --- | --- | --- |
| SAGGSAGGSAVPPDRPFTLPVLTLVRDPETGELYLARAEVTFLAPDPVITAARLEVFPPDADFSAGGSAGGS [r12_868_TrMRF] | 5.59 ± 0.377 kJ/mol | 7.07 ± 0.356 kJ/mol | 3.19 ± 0.243 kJ/mol |
| SAGGSAGGSAVSPDETVPIKIDGKEVTVTFNGSKATITFPDGTVIEGTVSTEGSKLTLDLNLSAGGSAGGSA [r18_172_JUSTAS] | 6.1 ± 0.544 kJ/mol | 5.25 ± 0.247 kJ/mol | 7.28 ± 0.222 kJ/mol |
| SAGGSAGGSAVYRTEDGRWVLVVEEVDGELTVHVYRRVDGRWELVETYPLEDLSPEARAALSAGGSAGGSAG [r3_241_TrROS_Hall] | 8.48 ± 0.222 kJ/mol | 9.74 ± 0.121 kJ/mol | 6.18 ± 0.105 kJ/mol |
| SAGGSAGGSAWGWISFNFEFLMFNPDGMFMPFRMQIDIRVEVKPEPKPKPKPKRDPNGKWKSAGGSAGGSAG [r3_252_TrROS] | 11.1 ± 0.628 kJ/mol | 11.7 ± 0.343 kJ/mol | 7.99 ± 0.142 kJ/mol |
| SAGGSAGGSAWHIRIHPGNEPQWIPIDDLRDKGLPPEELAEELQKKFGFKVEIVDPGWIRVKSAGGSAGGSA [r18_7_TrROS] | -1.46 ± 1 kJ/mol | -1.52 ± 1.76 kJ/mol | -1.19 ± 1.09 kJ/mol |
| SAGGSAGGSAWIVIPAEDIKENLDEIEFRNGDGQEYRIKVDVQEHGDRPYVMIDIVPPGQPISAGGSAGGSA [r18_447_TrROS] | 1.98 ± 0.753 kJ/mol | 3.69 ± 0.628 kJ/mol | -1.73 ± 1.17 kJ/mol |
| SAGGSAGGSAWKKFMLEFPDGRPFMIEIDPDEPGRVKIYPPGNGKEEEIPPDDLKDLKITASAGGSAGGSAG [r3_451_TrROS] | 2.12 ± 1.38 kJ/mol | 3 ± 1.13 kJ/mol | -0.212 ± 1.51 kJ/mol |
| SAGGSAGGSAWRLYIGGQKIEIPPGGPVKLERHKNGWVKIEIKMPGGRKKEFTIPIPPGATSAGGSAGGSAG [r3_207_TrROS] | 6.94 ± 0.753 kJ/mol | 7.34 ± 0.711 kJ/mol | 5.16 ± 0.586 kJ/mol |
| SAGGSAGGSAYELVIVGTPELALKLAKEFAEKNPESVANLKIEKITAALPVPFLSPDGIPESAGGSAGGSAG [r3_89_TrMRF] | 0.344 ± 1 kJ/mol | 0.865 ± 1.63 kJ/mol | 0.396 ± 0.418 kJ/mol |
| SAGGSAGGSDDSPEDAQKQQAKPEIKIKLHIRFPDGKEYDLDEPFEFPINGQPMRISSIDIVYSAGGSAGGS [r12_43_TrROS] | 3.44 ± 0.46 kJ/mol | 4.94 ± 0.879 kJ/mol | 1.75 ± 0.155 kJ/mol |
| SAGGSAGGSDEEVEVTLYPVDPSAPDDTVYYAEVTFPNGLVARYRFRKKDGKVEGELVEVKPASAGGSAGGS [r12_1049_TrMRF] | 8.01 ± 0.347 kJ/mol | 8.14 ± 0.46 kJ/mol | 6.92 ± 0.201 kJ/mol |
| SAGGSAGGSDFKPVLVIELDDKTVLVFELEDGTVLVLAENEIALIPASIPAEHFPEDAKLDLDSAGGSAGGS [r12_594_TrMRF] | 7.74 ± 0.272 kJ/mol | 7.35 ± 0.218 kJ/mol | 8.55 ± 0.502 kJ/mol |
| SAGGSAGGSDLVRVEMLITKIVPGTGDPVETVKIEVEVPRSEIPKVIEEIPEGYEVTEIKFIPESAGGSAGG [r6_777_JUSTAS] | 6.58 ± 0.46 kJ/mol | 4.92 ± 0.259 kJ/mol | 8.57 ± 0.331 kJ/mol |
| SAGGSAGGSDMTMTYIIPLPDYAIVISFKIEITEVEYNPENGKPVKFRFDIEIKIEVFPPGDLSAGGSAGGS [r12_809_TrROS] | 18.3 ± 1.21 kJ/mol | 19.6 ± 0.795 kJ/mol | 14.5 ± 0.879 kJ/mol |
| SAGGSAGGSDPAKKPVYLLATVEVEIGEVVDPNTGEPSHEHRVTVRFLITIDPDGNISISSLTSAGGSAGGS [r12_438_TrMRF] | 13.2 ± 0.879 kJ/mol | 13.6 ± 0.753 kJ/mol | 12.1 ± 0.837 kJ/mol |
| SAGGSAGGSDPNNEPVYIMMKFEIEIKVERDPENGKPKAEDPITITFIIRIPPNGNLEIGIMISAGGSAGGS [r12_438_TrROS] | 17.2 ± 0.502 kJ/mol | 18.1 ± 0.544 kJ/mol | 14.7 ± 0.46 kJ/mol |
| SAGGSAGGSDPPVVTVEVKEETLPNGEKIYIVTVTREDGTTKTLKFPASTSEEEIKEKVEKLLSAGGSAGGS [r12_1019_JUSTAS] | 17.4 ± 1.46 kJ/mol | 17.1 ± 0.753 kJ/mol | 15.2 ± 1.26 kJ/mol |
| SAGGSAGGSDTIVVTLPDGTKITYDKENNEVYVYNLKTKKKIKFPKNMSLEEVLKAIKKLKKPSAGGSAGGS [r12_832_TrROS_Hall] | 11.3 ± 0.343 kJ/mol | 12.48 ± 0.109 kJ/mol | 8.36 ± 0.293 kJ/mol |
| SAGGSAGGSDWRPIKIWYPLDDLEQIKEKIREDGITVEINVQRDPNGKLYAPVTIWVPKGAKPSAGGSAGGS [r12_653_TrROS] | 5.5 ± 0.628 kJ/mol | 6.56 ± 0.134 kJ/mol | 4.17 ± 0.163 kJ/mol |
| SAGGSAGGSEAKIELEYDEETNTLTVRIEVDGELYEERIEVTIEPAPPPPPPVEVVVVELPEESAGGSAGGS [r12_70_TrROS_Hall] | 10 ± 2.05 kJ/mol | 11.3 ± 0.879 kJ/mol | 6.51 ± 2.3 kJ/mol |
| SAGGSAGGSEATLEVEVRVDGVLVRVRVEYDLETQELRIEVEVRPLPPPPVEVRTEYRSLEDLSAGGSAGGS [r12_813_TrROS_Hall] | 6.28 ± 1.13 kJ/mol | 6.67 ± 1.09 kJ/mol | 5.16 ± 0.218 kJ/mol |

| Sequence | folding stability dG unfold [1] | folding stability dG unfold [2] | folding stability dG unfold [3] |
| --- | --- | --- | --- |
| SAGGSAGGSEEEKLKKLKEKLKPPKIKVKIEVKVEYDKETGKLKVEATVEINGKKYKLTIEFPSAGGSAGGS [r20_230_TrROS_Hall] | 14.6 ± 2.97 kJ/mol | 17.5 ± 0.544 kJ/mol | 13 ± 0.795 kJ/mol |
| SAGGSAGGSEEIKKAIEEALKKMKPGEEKEVTIEIYDKKTNKKIAKIKIRIRRKKDGKLEIEFSAGGSAGGS [r20_151_TrROS_Hall] | 15.8 ± 0.795 kJ/mol | 15.1 ± 0.795 kJ/mol | 16.8 ± 0.837 kJ/mol |
| SAGGSAGGSEEILKALGVEPGDEVEIEMTPEELEELLALPGVEPVRVEERPDGRLRVRIRILPSAGGSAGGS [r12_750_TrROS_Hall] | 12.5 ± 0.418 kJ/mol | 12.2 ± 0.322 kJ/mol | 13.2 ± 0.46 kJ/mol |
| SAGGSAGGSEIKIEKAEITVEYDEETGVFRATITLPDGYRITAEFRLRPDGSLELTRVEIEEVSAGGSAGGS [r12_111_TrROS_Hall] | 22.1 ± 1.05 kJ/mol | 22.5 ± 0.46 kJ/mol | 18 ± 0.795 kJ/mol |
| SAGGSAGGSEIPDIEITIDSIEFFPDGTVRITATVRFPGGGTAKITLTLPAPPAEYEPPSDLLSAGGSAGGS [r12_558_TrMRF] | 5.82 ± 2.09 kJ/mol | 4.68 ± 1.05 kJ/mol | 6.25 ± 0.837 kJ/mol |
| SAGGSAGGSEKIKEALKELGYDVEIEEIEVKKNKNGKLEIKIKLKPGMSEEEKKRIEEALKKLSAGGSAGGS [r12_352_TrROS_Hall] | 11.9 ± 1.26 kJ/mol | 11.7 ± 0.711 kJ/mol | 13.3 ± 1.67 kJ/mol |
| SAGGSAGGSEKTIKITIKVKVKKKVTVKNKNGEKKTFEFEEKTYTLTTIKFDSKEDALKALKKSAGGSAGGS [r12_452_TrROS_Hall] | 9.06 ± 0.92 kJ/mol | 10.4 ± 0.305 kJ/mol | 5.67 ± 0.184 kJ/mol |
| SAGGSAGGSEPVVIKVTVTNENGEKRTITLPEIEVEPGETIEEIAAALAAEPGVKEVKVEVVPSAGGSAGGS [r12_199_TrROS_Hall] | 2.53 ± 0.289 kJ/mol | 1.86 ± 0.163 kJ/mol | 2.94 ± 0.092 kJ/mol |
| SAGGSAGGSERWVKIWFPPGGTLEEASKMIEEWAQQLGLPITKIDEIEWDPGNGRVEITIRLKSAGGSAGGS [r12_131_TrROS] | 8.45 ± 0.259 kJ/mol | 8.421 ± 0.0628 kJ/mol | 8.08 ± 0.192 kJ/mol |
| SAGGSAGGSFFIRVEYPKGKTRTYPIKNGPIEEALEQLPPGWDNVKVSIYNGNKPVEFEIPLPSAGGSAGGS [r12_767_TrROS] | 3.37 ± 0.381 kJ/mol | 4.62 ± 0.31 kJ/mol | 1.63 ± 0.544 kJ/mol |
| SAGGSAGGSFKAPPGEKYVLKLRSPENGQEFMVEFTPDNIKISNPNDEKMPFPPDDITDVKDVSAGGSAGGS [r20_35_TrROS] | -0.457 ± 0.711 kJ/mol | 0.194 ± 1 kJ/mol | -2.56 ± 1.38 kJ/mol |
| SAGGSAGGSFRIKEIEYKPPKGMIEVEIEFPNGRPIKIHINPDEGWDPIYFGGKPIFPIRIEPSAGGSAGGS [r12_789_TrROS] | 2.23 ± 0.46 kJ/mol | 3.59 ± 0.544 kJ/mol | -0.864 ± 0.418 kJ/mol |
| SAGGSAGGSGDKDEVDPNKNISPIPPVKATIFPPDGTPRTVTFTSEEELKAYAEARGWTIEVPSAGGSAGGS [r12_244_JUSTAS] | 1.33 ± 0.962 kJ/mol | 0.965 ± 1.21 kJ/mol | 0.00292 ± 0.502 kJ/mol |
| SAGGSAGGSGEELRNLLANVKKVTVFPNADGGLGVLIELEPEEPEERTIVLNYDQLAELLALGSAGGSAGGS [r12_466_TrMRF] | 3.92 ± 0.628 kJ/mol | 3.4 ± 0.46 kJ/mol | 3.83 ± 0.109 kJ/mol |
| SAGGSAGGSGGFLVLEFEIEVDPEDPEKALAVVEALVESLGFEPVLIEVEEDENRVRVRVLLGSAGGSAGGS [r12_731_TrMRF] | 13 ± 0.544 kJ/mol | 13 ± 0.544 kJ/mol | 12.3 ± 0.414 kJ/mol |
| SAGGSAGGSGGMMKVIVSVSPGEEAVEKVNKLVNETDLPPIEVIIIPHSPDDPIVVAILLLLLSAGGSAGGS [r12_649_JUSTAS] | 11.4 ± 0.238 kJ/mol | 13.1 ± 0.134 kJ/mol | 9.74 ± 0.222 kJ/mol |
| SAGGSAGGSGIEELKKAGFEIVRIERKEDGTLRLTVRNKETEETKTIEITLPEAEVELVEPPESAGGSAGGS [r12_166_TrROS_Hall] | 14.9 ± 0.389 kJ/mol | 15.7 ± 0.318 kJ/mol | 14.1 ± 0.46 kJ/mol |
| SAGGSAGGSGKPEKVKITYTKDTNTNKYTATITFENGPTYKITFPTKTPEEAIEQAKKLIEASSAGGSAGGS [r12_339_TrMRF] | 8.1 ± 0.628 kJ/mol | 8.58 ± 0.134 kJ/mol | 6.77 ± 0.255 kJ/mol |
| SAGGSAGGSGMKITSISKLPDGSYLVTTQDPGKGTPTTVPFSTPEEGKKLKKELEEKGGKVELSAGGSAGGS [r20_177_JUSTAS] | -0.298 ± 0.753 kJ/mol | -0.29 ± 0.46 kJ/mol | -0.277 ± 0.418 kJ/mol |
| SAGGSAGGSGMMFELAFREIKYSPNDSVTIKAELPDGSSITIPTKKGEIKFKLPENGYVKVLGSAGGSAGGS [r12_746_JUSTAS] | -1.1 ± 0.837 kJ/mol | -2.15 ± 2.3 kJ/mol | -1.18 ± 1.42 kJ/mol |
| SAGGSAGGSGMMLKIEIPVEDPGSEEKAKKIAEELAKKLGLSPKEVKIKIKVIPKLPPEEILNSAGGSAGGS [r12_1066_JUSTAS] | 2.43 ± 0.92 kJ/mol | 2.22 ± 0.46 kJ/mol | 1.97 ± 0.322 kJ/mol |

Source: the supplement of paper PMC12764529
